# In patent US20050009743A1:
# What was measured:
# [1] = molecular target: (CA-CTD)2, two copies of the HIV-1 CA C-terminal dimerization domain in tandem (plasmid WISP0070) (HIV-1 NL4-3); test: Superdex 75 gel filtration, 4 mg/ml loaded, 25 mM phosphate pH 7.2, 150 mM NaCl; self-association
# [2] = molecular target: (CA-CTD)2, two copies of the HIV-1 CA C-terminal dimerization domain in tandem (plasmid WISP0070) (HIV-1 NL4-3); test: equilibrium sedimentation (analytical ultracentrifugation), 22,000 rpm, 4 °C, 25 mM phosphate pH 7.0, 100 mM NaCl, 2 mM DTT; self-association
# [3] = molecular target: CA-NC(G94D) with the CA W184A/M185A mutations (plasmid WISP01127) (HIV-1 NL4-3); test: self-assembly of 9 µM mutant protein with 1 µM d(TG)50, overnight at 4 °C, 500 mM NaCl, 50 mM Tris-HCl pH 8.0; light scattering at 312 nm
# [4] = molecular target: HIV-1 CA-NC(G94D) protein (HIV-1 NL4-3 Gag amino acids 133-433 with the point mutation G94D; plasmid WISP9868) (HIV-1 NL4-3); test: self-assembly of 9 µM CA-NC(G94D) with 1 µM d(TG)50, 16 h at 4 °C, 500 mM NaCl, 50 mM Tris-HCl; light scattering at 312 nm
# [5] = molecular target: HIV-1 CA-NC(G94D) protein (HIV-1 NL4-3 Gag amino acids 133-433 with the point mutation G94D; plasmid WISP9868) (HIV-1 NL4-3); test: self-assembly of 9 µM protein with 1 µM d(TG)50, overnight at 4 °C, 500 mM NaCl, 50 mM Tris-HCl pH 8.0; light scattering at 312 nm
# [6] = molecular target: HIV-1 CA-NC(G94D) protein (HIV-1 NL4-3 Gag amino acids 133-433 with the point mutation G94D; plasmid WISP9868) (HIV-1 NL4-3); test: self-assembly of 9 µM CA-NC(G94D) with 0.03 mg/ml d(TG)25, overnight at 4 °C, 500 mM NaCl, 50 mM Tris-HCl pH 8.0; light scattering at 312 nm
# [7] = molecular target: HIV-1 CA-NC(G94D) protein (HIV-1 NL4-3 Gag amino acids 133-433 with the point mutation G94D; plasmid WISP9868) (HIV-1 NL4-3); test: self-assembly of 9 µM CA-NC(G94D) with 0.03 mg/ml d(TG)38, overnight at 4 °C, 500 mM NaCl, 50 mM Tris-HCl pH 8.0; light scattering at 312 nm
# [8] = molecular target: HIV-1 CA-NC(G94D) protein (HIV-1 NL4-3 Gag amino acids 133-433 with the point mutation G94D; plasmid WISP9868) (HIV-1 NL4-3); test: self-assembly of 9 µM CA-NC(G94D) with 0.03 mg/ml d(TG)50, overnight at 4 °C, 500 mM NaCl, 50 mM Tris-HCl pH 8.0; light scattering at 312 nm
# [9] = molecular target: HIV-1 CA-NC(G94D) protein (HIV-1 NL4-3 Gag amino acids 133-433 with the point mutation G94D; plasmid WISP9868) (HIV-1 NL4-3); test: self-assembly of 9 µM CA-NC(G94D) with 0.03 mg/ml random 100-base oligonucleotide d(N)100, overnight at 4 °C, 500 mM NaCl, 50 mM Tris-HCl pH 8.0; light scattering at 312 nm (only slightly above background)
# [10] = molecular target: CA-NC(G94D) with the CA A42D mutation (plasmid WISP01125) (HIV-1 NL4-3); test: self-assembly of 9 µM mutant protein with 1 µM d(TG)50, overnight at 4 °C, 500 mM NaCl, 50 mM Tris-HCl pH 8.0; light scattering at 312 nm
# [11] = molecular target: HIV-1 CA-NC (wild-type) (HIV-1 NL4-3); test: self-assembly of 9 µM protein with 1 µM d(TG)50, overnight at 4 °C, 500 mM NaCl, 50 mM Tris-HCl pH 8.0; light scattering at 312 nm (the filing puts the higher signal down to aggregation)
substance,measurement,setting,value
"(CA-CTD)2, two copies of the HIV-1 CA C-terminal dimerization domain in tandem (plasmid WISP0070)","apparent mass (gel filtration, oligomerization state)",[1],59 kDa
same,Kd,[2],< 1000 nM
CA-NC(G94D) with the CA W184A/M185A mutations (plasmid WISP01127),Abs312 (light scattering of cylinder formation),[3],0.008
HIV-1 CA-NC(G94D) protein (HIV-1 NL4-3 Gag amino acids 133-433 with the point mutation G94D; plasmid WISP9868),Abs312 (light scattering of cylinder formation),[4],0.3 to 0.4
same,Abs312 (light scattering of cylinder formation),[5],0.292
same,Abs312 (light scattering of cylinder formation),[6],0.2
same,Abs312 (light scattering of cylinder formation),[7],0.279
same,Abs312 (light scattering of cylinder formation),[8],0.292
same,Abs312 (light scattering of cylinder formation),[9],0.035
CA-NC(G94D) with the CA A42D mutation (plasmid WISP01125),Abs312 (light scattering of cylinder formation),[10],0.025
HIV-1 CA-NC (wild-type),Abs312 (light scattering of cylinder formation),[11],0.735
